Assay [1] concerns the target T1, monkey GPC3-His protein (monkey).
T1 construct: Bought recombinant protein; also called monkey GPC3 protein
The experiment in a line: SPR, antibody captured on Protein A chip, monkey GPC3-His analyte. (In general: SPR reads the build-up and loss of mass on a sensor chip optically.)

Assay [2] has as its target T2, human GPC3-His protein (human, UniProt P51654 25-559).
T2 construct: also called human GPC3 protein; not shown: His tag
The experiment in a line: SPR, antibody captured on Protein A chip, human GPC3-His analyte.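 Further: measured at 25 °C flow cell, human GPC3-His injected at five concentrations up to 200 nM, 240 s association, up to 600 s dissociation, double-referenced, fitted to Langmuir 1:1 model.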

The target in assay [3] is T3, monkey GPC3 on HEK293T-monkey GPC3 cells (monkey).
T3 construct: whole, on cells
The experiment in a line: FACS on HEK293T-monkey GPC3 cells.
Method: The desired cells were expanded to a logarithmic growth phase in a T-75 cell culture flask, the medium was removed by pipetting, and the cells were washed twice with a PBS buffer, and digested with trypsin. Then a complete medium was added to stop the digestion, and the cells were blown into a single cell suspension. After counting, the cells were centrifuged, and the cell pellet was resuspended with an FACS buffer (PBS+2% fetal bovine serum) to 2×10⁶ cells/mL. The cell resuspension solution was added to a 96-well FACS reaction plate at 50 μl/well, and a chimeric antibody sample to be tested was added at 50 μl/well for incubation at 4° C. for 1 h. […] After the plate was centrifuged and washed 3 times with a PBS buffer, 100 μl of the resulting solution was assayed and analyzed by FACS (FACS Canto™, purchased from BD Biosciences). Data analysis was performed by software (FlowJo) to obtain the mean fluorescence intensity (MFI) of the cells. Then, analysis was performed by software (GraphPad Prism8), data were fitted, and EC₅₀ values were calculated.

The target of assay [4] is T1, monkey GPC3-His protein. The assay can be described thus: ELISA, monkey GPC3-His coated.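 Further: Plate-coated antigen at 1 µg/mL, antibody binding 2 h at 37 °C, detected with HRP-labeled secondary antibody and TMB, absorbance at 450 nm.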
The target of assay [5] is T4, human GPC3-His protein (human, UniProt P51654 25-559, limits assumed).
T4 construct: also called human GPC3 protein; not shown: His tag
The assay can be described thus: SPR, antibody captured on Protein A chip, human GPC3-His injected, 1:1 Langmuir model.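 Further: flow cell at 25 °C, antigen injected for 240 s at five twofold dilutions starting at 200 nM, dissociation followed up to 600 s, double-referenced sensorgrams.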

Assay [6] has as its target T5, monkey GPC3 on HEK293T-monkey GPC3 cells (monkey).
T5 construct: whole, on cells
The assay can be described thus: FACS on HEK293T-monkey GPC3 cells. The source holds these as a separate data set.

Where two headings read alike, the source gives them in different places.

The Kd is the concentration at which binding is half-saturated. The term koff denotes the rate constant with which the complex falls apart. As a reminder, the kon is a measure of how fast the partners come together. In general, EC50 refers to the concentration giving half of the maximal effect.

B1: F4.26.1 (antibody, human IgG1, kappa, V domains shown)
VH: QVQLKQSGPGLVQPSQSLSITCTVSGFSLTSYGVHWVRQSPGKGLEWLGVIWSSGNTDYNAVLISRLSIKKDDSKSQVFFKMNSPQVDDSAIYYCGRNGGWLLRGFMDFWGQGTSVTVSS
VL: DVVMTQTPLSLPVSLGDQASISCRSSQSLLHSNGNTYLHWYLQRSGQSPNLLIYKVSNRFSGVPDRFSGGGSGTDFTLKISRVEAEDLGIYFCSQSTHVPWTFGGGTKLEIKR
notes: Human-murine chimeric antibody
In the assay with monkey GPC3-His protein [1], B1 yielded a dissociation constant (Kd) of 1.38 nM, a koff of 0.000587 s⁻¹ and a kon of 425000 M⁻¹ s⁻¹. In the assay with human GPC3-His protein [2], this molecule yielded a Kd of 2.34 nM, an off-rate constant (koff) of 0.000461 s⁻¹ and a kon of 197000 M⁻¹ s⁻¹. Besides, in assay [3], a half-maximal effect (EC50) was put at 1.21 nM and the “Max MFI” value was determined as 50500 MFI. In the assay with monkey GPC3-His protein [4], the “OD450 at 0.0001 nM” value is 0.27 OD450, the “OD450 at 0.001 nM” value came to 0.07 OD450, the “OD450 at 0.01 nM” value was found to be 0.18 OD450 and the “OD450 at 0.1 nM” value turned out to be 0.89 OD450. For the same molecule, in the assay with monkey GPC3-His protein [4], the “OD450 at 1 nM” value worked out at 1.38 OD450, the “OD450 at 10 nM” value came to 1.88 OD450 and the “OD450 at 100 nM” value was determined as 1.5 OD450.

B2: hAb001H1L1b (antibody, human IgG1, V domains shown)
VH: EVQLVESGGGLVQPGGSLRLSCAASGFSFNTNAMNWVRQAPGKGLEWVGRIRSKSNNYATYYADSVKDRFTISRDDSKNSLYLQMNSLKTEDTAVYYCVRDGYYVLFAYWGQGTLVTVSS
VL: DIVMTQTPLSLPVTPGEPASISCRFSQSIVNSNANTYLEWFLQKPGQSPQLLIYKVSNRFSGVPDRFSGSGSGTDFTLKISRVEAEDVGVYYCFQGSHVPFTFGQGTKLEIK
notes: Humanized F2.169.2
On to B2, for which, in the assay with human GPC3-His protein [5], binding was characterised by a dissociation constant (Kd) of 19.8 nM, the koff came out at 0.937 s⁻¹ and the kon was found to be 4.74e+07 M⁻¹ s⁻¹. Further, in assay [6], the EC50 was determined as 1.54 nM and the “Max MFI” value turned out to be 32900 MFI.

B3: hAb001H1aL1b (antibody, human IgG1, V domains shown)
VH: EVQLVESGGGLVQPGGSLRLSCAASGFSFNTNAMNWVRQAPGKGLEWVGRIRSKSNNYATYYADSVKGRFTISRDDSKNSLYLQMNSLKTEDTAVYYCVRDGYYVLFAYWGQGTLVTVSS
VL: DIVMTQTPLSLPVTPGEPASISCRFSQSIVNSNANTYLEWFLQKPGQSPQLLIYKVSNRFSGVPDRFSGSGSGTDFTLKISRVEAEDVGVYYCFQGSHVPFTFGQGTKLEIK
notes: Humanized F2.169.2
As to B3, in the assay with human GPC3-His protein [5], the equilibrium dissociation constant (Kd) was 109 nM, the off-rate constant (koff) amounted to 0.0167 s⁻¹ and the on-rate constant (kon) was found to be 153000 M⁻¹ s⁻¹. For the same molecule, in assay [6], the concentration for a half-maximal effect (EC50) is 0.96 nM and the “Max MFI” value was 32600 MFI.

B4: hAb001H1aL1 (antibody, human IgG1, V domains shown)
VH: EVQLVESGGGLVQPGGSLRLSCAASGFSFNTNAMNWVRQAPGKGLEWVGRIRSKSNNYATYYADSVKGRFTISRDDSKNSLYLQMNSLKTEDTAVYYCVRDGYYVLFAYWGQGTLVTVSS
VL: DIVMTQTPLSLPVTPGEPASISCRFSQSIVNSNGNTYLEWFLQKPGQSPQLLIYKVSNRFSGVPDRFSGSGSGTDFTLKISRVEAEDVGVYYCFQGSHVPFTFGQGTKLEIK
notes: Humanized F2.169.2
In the assay with human GPC3-His protein [5], B4 returned a Kd of 27 nM, a koff of 0.0701 s⁻¹ and an association rate constant (kon) of 2.6e+06 M⁻¹ s⁻¹. Moreover, in assay [6], the concentration for a half-maximal effect (EC50) was 1 nM and the “Max MFI” value is 34000 MFI.

B5: hAb001H2L1b (antibody, human IgG1, V domains shown)
VH: EVQLVESGGGLVQPGGSLRLSCAASGFSFNTNAMNWVRQAPGKGLEWVGRIRSKSNNYATYYADSVKDRFTISRDDSKSSLYLQMNSLKTEDTAVYYCVRDGYYVLFAYWGQGTLVTVSS
VL: DIVMTQTPLSLPVTPGEPASISCRFSQSIVNSNANTYLEWFLQKPGQSPQLLIYKVSNRFSGVPDRFSGSGSGTDFTLKISRVEAEDVGVYYCFQGSHVPFTFGQGTKLEIK
notes: Humanized F2.169.2
As to B5, in the assay with human GPC3-His protein [5], the Kd was found to be 19.2 nM, the off-rate (koff) stood at 0.0101 s⁻¹ and the kon worked out at 526000 M⁻¹ s⁻¹. In assay [6], the EC50 stood at 1.41 nM and the “Max MFI” value came to 33100 MFI.

Source of the values: patent US20260116991A1 (HAINAN SIMCERE ZAIMING PHARMACEUTICAL, published 2026).
